Usually EC50 stands for the midpoint of the concentration-response curve. Broadly, the Kd is a measure of binding affinity in units of concentration. Lower therefore signals higher affinity.

B1: C891 (antibody, V domains shown)
VH: EVQLVESGGGLVKPGGSLRLSCAVSGFTFSNVWMSWVRQAPGKGLEWVGRIKSKTDGGTTDYAAPVKGRFTISRDDSKNTLYLQMNSLKTEDTAVYYCTSQLWLRGPGDYWGQGTLVTVSS
VL: NFMLTQPHSVSESPGKTVTISCTGSSGSIASNYVQWYQQRPGSAPTTVIYEDNQRPSGVPDRFSGSIDSSSNSASLTISGLKTEDEADYYCQSYDSSLNWVFGGGTKLTVL
B2: C892 (antibody, V domains shown)
VH: EVQLVESGGGLVKPGGSLKVSCTASGFTFTDAWMSWVRQAPGKGLEWVGRIKSRAYGGTTDYGAPVQGRFTISRDDSINTLYLQMNSLTAEDTAVYYCTSQLWLRGPGDYWGQGTLVTVSS
VL: NFMLTQPHSVSESPGKTVTISCTGSSGSIASNYVHWYQQRPGGAPTTVIYEDNQRPSGVPDRFSGSIDISSNSASLTISGLKTEDEGDYYCQSYDSGVNWVFGGGTKLTVL
B3: C845 (antibody, V domains shown)
VH: QVQLQESGPGLVKPSQTLSLTCTVSGASISSGEYYWSWVRQPPGKGLEWVGYIYYSGSTYYNPSLKSRVTISVDTSKNHFSLKLKSLTAADTAVYFCATGGLSAFGELFPHDKWGQGTLVTVSS
VL: EIVLTQSPATLSLSPGERATLSCRASQSVGSDLAWYQQKPGQAPRLLIYDTSNRATGIPARFSGSGSGTDFTLTISSLDPADFAVYYCQQRTNWLFSFGPGTKVDIK
B4: C887 (antibody, V domains shown)
VH: EVQLVESGGDLVQPGGSLRLSCAASGFTFTTYSMSWVRQAPGKGLEWISYINSGSANIHYADSVKGRFTVSRDNAKNSLYLQMNSLRDEDTAVYYCARGDCLSSSCYSLDYWGQGALVTVSS
VL: DIQMTQSPSSLSASVGDRVTITCRASQSITSYLSWYLQKPGEAPKLLIYAASILQSGVPSRFGGNGSGTDFTLTISSLQPEDFATFYCQQTYRSPLTFGGGTKVEIK
B5: C890 (antibody, V domains shown)
VH: QVQLVQSGAEVKKPGSSVKASCKASGGTFSTYTISWVRQAPGHGLEWMGRIIPIFGTTKYAQKFQGRVTITADESTTTAYLELSSLRSEDTAVYYCTINTQWDLVPRWGQGTLVTVSS
VL: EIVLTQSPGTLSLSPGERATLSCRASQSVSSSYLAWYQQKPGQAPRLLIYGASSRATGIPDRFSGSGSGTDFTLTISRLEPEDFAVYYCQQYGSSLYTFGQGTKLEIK
B6: C881 (antibody, V domains shown)
VH: EVQLVESGGGLIQPGGSLRLSCAVSGVAVSTNYMSWVRQAPGQGLEWVSTIYSGDTTYYSDSVKGRFTISRDNSKNTFYLQMNSLRVPDTAVYYCARLGGVFNGFNGSFDYWGQGTLVTVS
VL: QSALTQPASVSGSPGQSITISCIGTSSDFENYNLVSWYQQHPGKAPKVMIYEDTKRPSGVSNRFSGSKSANTASLTISGLQAEDEAEYYCCSYAGASTWVFGGGTRVTVV
B7: C901 (antibody, V domains shown)
VH: QVQLVESGGGVVQPGRSLRIACGASGFTFSTYDMHWVRQAPVKGLEWVAVISRDGSGKFYADSVKGRFTISRDNSKKTLYLQMDSLRPEDTAMYYCARDFESRTWDPPKYYYALDVWGQGTTVTVSS
VL: DIQMTQSPSSLSASVGDRVTITCRASQSISTYLNWYQQKPGKAPSLLIYAASSLYSGVPSRFSGSGSGTDFSLTISSLQPEDFATYYCQQTYTTPTWTFGQGTKVEIK
B8: C902 (antibody, V domains shown)
VH: EVQLVQSGAEVKKPGESLRISCKGSGYSFHTYWIHWVRQMPGKGLEWMGKIDPSDSYTNYSPSFQGHVTFSADRSISTAYLQWSSLKASDTATYYCARLSWSPPTRTTDEKNWFDPWGQGTLVTVSS
VL: DIQLTQSPSFLAASAGDRVTITCRASQGISSYLAWYQQKPGKAPKVLIYAASTLQSGVPSRFSGSGSGTEFTLTISSLQPEDCATYYCQQFNSDPLTFGGGTKVEIK
B9: C970 (antibody, V domains shown)
VH: QVQLQESGPGLVKPSETLSLTCTVSGDSINKYYWGWIRQPPGKGLEWIGYIYYSGTTNYNPSLKSRVTISVDTSKTQFSLKLSSVTAADTAVYYCARLLSTEWSFNWFDPWGQGTLVTVSS
VL: SYELTQPPSVSVSPGQTASITCSGDTLGDKYACWYQQKPGQSPLLVIYQNNKRPSGIPERFSGSNSGNTATLTISGTQAMDEADYYCQAWDSSTAYVFGTGTKVTVL
B10: C980 (antibody, V domains shown)
VH: QVQLVQSGAEVKKPGSSVKVSCEASGGTFSSDSINWVRQAPGQGLEWMGRIIPIFGATNYAQKFQGRVTITADKSTDTVYMEVSSLTSEDTAVYYCARGGIAVGGWWFDPWGQGTLVTVSS
VL: EIVMTQSPATLSVSPGERATLSCRASESVSSKLAWYQQKPGQAPRLLIYGASTRATGISARFSGSGSGTDFTLTISSLESEDFAVYYCQQYNHWPPNTFGQGTKLEIK
B11: C889 (antibody, V domains shown)
VH: EVQLVESGGGLVQPGGSLRLSCAVSGFTVSSNYMTWVRQAPGKGLEWVSLIYSGTSAFYADSVKGRFTISRDNSKNTLYLQMSSLRVNDTAIYYCARDLRKDDGYSYGAFDYWGQGTLVTVSS
VL: QSALTQPASVSGSPGQSITISCSGTSSDVGAHNYVSWYQQYPGKAPKLMIFDVTDRPSGVSNRFSGSKSGNTASLTISGLQAEDEADYYCTSYTTNRSWVFGGGTKVTVL
B12: C044 (antibody, V domains shown)
VH: EVQLVESGGGLVQPGGSLRLSCAASGFTFSSYSMNWVRQAPGKGLEWVSYISSSSSTIYYADSVKGRFTISRDNAKNSLYLQMNSLRDEDTAVYYCAREAHDGALTDYGDYLNWFDPWGQGTLVTVSS
VL: SYELTQPPSVSVAPGKTARITCGGNNIGSKSVHWYQQKPGQAPVLVIYYDSDRPSGIPERFSGSNSGNTATLTISRVEAGDEADYYCQVWDSSSDHLYWVFGGGTKLTVL
B13: C101 (antibody, V domains shown)
VH: QVQLVESGGGLIQPGGSLRLSCAASGFIVSSNYMSWVRQAPGKGLEWVSVIYSGGSTFYTDSVKGRFTISRDNSKNTLYLQMNSLRAEDTAVYYCVRDYGDFYFDYWGQGTLVTVSS
VL: EIVLTQSPGTLSLSPGERATLSCRASQSVSSSYLAWYQQKPGQAPRLLIYGASSRATGIPDRFSGGGSETDFTLTISRLEPEDCAVYYCQQYGSSPRTFGQGTKVEIK
B14: C572 (antibody, V domains shown)
VH: EVQLVESGGGLIKPGRSLRLSCTASGFTFGDYAMTWFRQAPGKGLEWVGFIRSKAYGGTTGYAASVKYRFTISRDDSKSIAYLQMDSLKTEDTAVYYCTRWDGWSQHDYWGQGTLVTVSS
VL: DIVMTQSPLSLSVTPGEPASISCRSSQSLLHSNGNNYFDWYLQKPGQSPQLLIYLASNRASGVPDRFSGSGSGTDFTLKISRVEAEDVGVYYCMQVLQIPYTFGQGTKLEI
B15: C570 (antibody, V domains shown)
VH: QVQLQESGPGLVKPSETLSLTCTVSGASISSYYWSWIRQPPGKGLEWIGYIYYSGSTNYNPSLKSRVTISLDTSKNQFSLQLSSVTAADTAVYYCATYYFDNSGYSYGLDVWGQGTTVTVSS
VL: DIQMTQSPSSLSASVGDRVTIACRASQSISSYLHWYQQQPGKAPKLLIYAVTNLQSGVPSRFSGSGSGTDFTLTISSLQPEDFATYYCQQSYSLPQTFGQGTKVEIK
B16: C566 (antibody, V domains shown)
VH: QVQLQESGPGLVKSSQTLSLNCSVFGASISSGGYYWTWIRQHPGKGLEWIGYIHYRGTYYNPSLKSRVTMSVDTSKNQFSLKVRSVSAADTAIYYCARAIVVVTLNWFDLWGQGTLVTVSS
VL: NFMLTQPHSVSESPGKTVTISCSGSGGSIASNYVQWYQQRPGSAPTAVIYEDNQRPSGVPDRFSGSIDSSSNSASLTISGLKTEDEADYYCQSYDTSNPVIFGGGTKLTV
B17: C573 (antibody, V domains shown)
VH: QVQLQESGPGLVKPSGTLSLTCAVSGGSISTVNWWSWVRQPPGKGLEWIGEIHHSGNTNHNPSLRSRVTISVDKSKNQFSLKLRSVTAADTAVYYCARDGGRPGDAFDLWGQGTMVTVSS
VL: QSALTQPASVSGSPGQSITISCTGTSSDVGGYNYVSWYQQHPGKVPKVMIYDVSNRPSGISNRFSGSKSGNTASLTISGLQAEDEADYYCNSYRSNSTRVFGTGTKVTV
B18: C580 (antibody, V domains shown)
VH: EVQLVQSGAEVKKAGESLKISCNSSGYSFTNYWIAWVRQVPGKGLEWMGIIYLGDSDTRYSPSFQGRVTISADKSISAAYLHWSSLKASDTAIYYCARGGPPGGVKLELTDFWGQGTLVTVSS
VL: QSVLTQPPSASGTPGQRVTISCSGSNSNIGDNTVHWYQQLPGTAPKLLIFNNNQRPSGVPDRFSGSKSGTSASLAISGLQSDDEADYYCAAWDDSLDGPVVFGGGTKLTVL

The target of the first test is T1, SARS-CoV-2 receptor-binding domain (RBD), S protein residues 319-539 (SARS-CoV-2, UniProt P0DTC2 319-539).
T1 construct: also called WT RBD; SARS-COV-2 RBD
Nature of the test: ELISA on coated RBD. On the technique in general: ELISA stands for enzyme-linked immunosorbent assay.
As for B1, it took 1.44 ng/mL to reach a half-maximal effect (EC50).

Molecule B2 registered an EC50 of 2.9 ng/mL.

For the molecule B3, the EC50 came out at 1.39 ng/mL.

In turn, B4 came in with an EC50 of 2.53 ng/mL.

The molecule B5 came in with an EC50 of 2.2 ng/mL. This EC50 and that of the molecule before are within 1.5-fold of each other.

B6 registered an EC50 of 1.44 ng/mL.

For B7, the EC50 was determined as 2.16 ng/mL.

The molecule B8 registered an EC50 of 3.4 ng/mL.

In turn, B9 displayed a concentration giving a half-maximal response (EC50) of 3.71 ng/mL.

In turn, B10 registered an EC50 of 4.07 ng/mL.

Take B11: the EC50 turned out to be 4.25 ng/mL.

The next test concerns the target SARS-CoV-2 receptor-binding domain (WT RBD; S protein residues 319-539) (SARS-CoV-2, UniProt P0DTC2 319-539). Kind of test: BLI (Octet Red), IgG on protein A biosensor, WT RBD in solution, 1:1 fit.
B12 had a Kd of 189 nM.

In the next test the target is SARS-COV-2 RBD (SARS-COV-2, UniProt P0DTC2 319-539). Nature of the test: ELISA, RBD coated on plate.
Turning to B13, the half-maximal effective concentration (EC50) came out at 1.51 ng/mL.

In turn, B14 gave an EC50 of 2.9 ng/mL.

Molecule B15 had an EC50 of 0.74 ng/mL.

With B16, the EC50 amounted to 5.88 ng/mL.

B17 came in with an EC50 of 2.2 ng/mL.

As to B18, the EC50 was 1.81 ng/mL.

The values above are taken from patent US20240218057A1 (ROCKEFELLER UNIVERSITY, published 2024).
